{"source": "paper PMC12462478", "about": "(Nature Communications, 2025)", "biological_target": "human LGR4 (residues 25–833), called full-length LGR4 (human, UniProt Q9BXB1 25-833)", "assay": "cryo-EM structure"}
{"binder": "RSPO2(FU), FU domain of RSPO2 (residues 37–143) (domain or fragment) NPICKGCLSCSKDNGCSRCQQKLFFFLRREGMRQYGECLHSCPSGYYGHRAPDMNRCARCRIENCDSCFSKDFCTKCKVGFYLHRGRCFDECPDGFAPLEETMECVE", "values": [{"measurement": "stoichiometry N", "value": 1}]}
